According to US20150125397A1 (AbbVie / Abbott, published 2015):

How the values were obtained:
mouse IgM = mouse IgM (mouse, UniProt P01872 1-454); assay: IgM binding ELISA, mIgM coated on plate
[1] = target: mouse IgM B cell receptor on primary murine B cells (mouse); assay: cell-based or functional assay

Sequence of mouse IgM (P01872 whole entry): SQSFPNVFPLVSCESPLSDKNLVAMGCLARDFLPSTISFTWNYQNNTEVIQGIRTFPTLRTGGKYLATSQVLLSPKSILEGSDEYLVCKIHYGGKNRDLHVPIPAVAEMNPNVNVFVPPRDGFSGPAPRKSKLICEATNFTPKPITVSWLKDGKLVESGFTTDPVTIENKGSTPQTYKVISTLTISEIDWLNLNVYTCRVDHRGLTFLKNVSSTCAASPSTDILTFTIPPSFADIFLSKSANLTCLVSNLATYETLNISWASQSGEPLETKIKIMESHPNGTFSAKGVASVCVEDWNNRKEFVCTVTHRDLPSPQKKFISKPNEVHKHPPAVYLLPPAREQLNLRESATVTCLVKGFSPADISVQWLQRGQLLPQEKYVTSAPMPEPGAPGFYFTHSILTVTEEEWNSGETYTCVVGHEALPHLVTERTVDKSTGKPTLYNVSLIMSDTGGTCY

| Binder | EC50 (mouse IgM) | ^3H incorporation, AM14 TLR9-/- B cells [1] | ^3H incorporation, AM14 WT B cells [1] |
| --- | --- | --- | --- |
| DVD3756 (bispecific antibody, human IgG1, kappa, Four-chain DVD-Ig) heavy: not shown light: NTVMTQSPTSMFISVGDRVTMNCKASQNVGSDVDWYQQKTGQSPKLLISGTSNRYTGVPDRFTGSGSGTDFTLTISNMQAEDLAVYYCLQYNYNPTFGAGTKLELKRGGSGGGGSGDVVMTQTPLSLPVSLGDQASISCRSSQSLVHSNGNTYLHWYLQKPGQSPKLLIYKVSNRFSGVPDRFSGSGSGTDFTLKISRVEAEDLGAYFCSQSTHVPYTFGGPTRLEIKRTVAAPSVFIFPPSDEQLKSGTASVVCLLNNFYPREAKVQWKVDNALQSGNSQESVTEQDSKDSTYSLSSTLTLSKADYEKHKVYACEVTHQGLSSPVTKSFNRGEC | 0.0331 µg/mL | 459 | 7790 |
| DVD3755 (bispecific antibody, human IgG1, kappa, Four-chain DVD-Ig) heavy: not shown light: DVVMTQTPLSLPVSLGDQASISCRSSQSLVHSNGNTYLHWYLQKPGQSPKLLIYKVSNRFSGVPDRFSGSGSGTDFTLKISRVEAEDLGAYFCSQSTHVPYTFGGPTRLEIKRTVAAPNTVMTQSPTSMFISVGDRVTMNCKASQNVGSDVDWYQQKTGQSPKLLISGTSNRYTGVPDRFTGSGSGTDFTLTISNMQAEDLAVYYCLQYNYNPTFGAGTKLELKRTVAAPSVFIFPPSDEQLKSGTASVVCLLNNFYPREAKVQWKVDNALQSGNSQESVTEQDSKDSTYSLSSTLTLSKADYEKHKVYACEVTHQGLSSPVTKSFNRGEC | 0.0971 µg/mL | 402 | 8500 |
| DVD3752 (bispecific antibody, human IgG1, kappa, Four-chain DVD-Ig) heavy: not shown light: DVVMTQTPLSLPVSLGDQASISCRSSQSLVHSNGNTYLHWYLQKPGQSPKLLIYKVSNRFSGVPDRFSGSGSGTDFTLKISRVEAEDLGAYFCSQSTHVPYTFGGPTRLEIKRTVAAPNTVMTQSPTSMFISVGDRVTMNCKASQNVGSDVDWYQQKTGQSPKLLISGTSNRYTGVPDRFTGSGSGTDFTLTISNMQAEDLAVYYCLQYNYNPTFGAGTKLELKRTVAAPSVFIFPPSDEQLKSGTASVVCLLNNFYPREAKVQWKVDNALQSGNSQESVTEQDSKDSTYSLSSTLTLSKADYEKHKVYACEVTHQGLSSPVTKSFNRGEC | 0.205 µg/mL | 512 | 12700 |
| DVD3751 (bispecific antibody, human IgG1, kappa, Four-chain DVD-Ig) heavy: not shown light: DVVMTQTPLSLPVSLGDQASISCRSSQSLVHSNGNTYLHWYLQKPGQSPKLLIYKVSNRFSGVPDRFSGSGSGTDFTLKISRVEAEDLGAYFCSQSTHVPYTFGGPTRLEIKRGGSGGGGSGNTVMTQSPTSMFISVGDRVTMNCKASQNVGSDVDWYQQKTGQSPKLLISGTSNRYTGVPDRFTGSGSGTDFTLTISNMQAEDLAVYYCLQYNYNPTFGAGTKLELKRTVAAPSVFIFPPSDEQLKSGTASVVCLLNNFYPREAKVQWKVDNALQSGNSQESVTEQDSKDSTYSLSSTLTLSKADYEKHKVYACEVTHQGLSSPVTKSFNRGEC | 0.191 µg/mL | 1180 | 35600 |
| DVD3757 (bispecific antibody, human IgG1, kappa, Four-chain DVD-Ig) heavy: not shown light: NTVMTQSPTSMFISVGDRVTMNCKASQNVGSDVDWYQQKTGQSPKLLISGTSNRYTGVPDRFTGSGSGTDFTLTISNMQAEDLAVYYCLQYNYNPTFGAGTKLELKRTVAAPDVVMTQTPLSLPVSLGDQASISCRSSQSLVHSNGNTYLHWYLQKPGQSPKLLIYKVSNRFSGVPDRFSGSGSGTDFTLKISRVEAEDLGAYFCSQSTHVPYTFGGPTRLEIKRTVAAPSVFIFPPSDEQLKSGTASVVCLLNNFYPREAKVQWKVDNALQSGNSQESVTEQDSKDSTYSLSSTLTLSKADYEKHKVYACEVTHQGLSSPVTKSFNRGEC | 0.0418 µg/mL | 382 | 4060 |
| DVD3760 (bispecific antibody, human IgG1, kappa, Four-chain DVD-Ig) heavy: not shown light: NTVMTQSPTSMFISVGDRVTMNCKASQNVGSDVDWYQQKTGQSPKLLISGTSNRYTGVPDRFTGSGSGTDFTLTISNMQAEDLAVYYCLQYNYNPTFGAGTKLELKRTVAAPDVVMTQTPLSLPVSLGDQASISCRSSQSLVHSNGNTYLHWYLQKPGQSPKLLIYKVSNRFSGVPDRFSGSGSGTDFTLKISRVEAEDLGAYFCSQSTHVPYTFGGPTRLEIKRTVAAPSVFIFPPSDEQLKSGTASVVCLLNNFYPREAKVQWKVDNALQSGNSQESVTEQDSKDSTYSLSSTLTLSKADYEKHKVYACEVTHQGLSSPVTKSFNRGEC | 0.0353 µg/mL | 302 | 4340 |
| DVD3754 (bispecific antibody, human IgG1, kappa, Four-chain DVD-Ig; also called IgM/DNA DVD3754) heavy: not shown light: DVVMTQTPLSLPVSLGDQASISCRSSQSLVHSNGNTYLHWYLQKPGQSPKLLIYKVSNRFSGVPDRFSGSGSGTDFTLKISRVEAEDLGAYFCSQSTHVPYTFGGPTRLEIKRTVAAPSVFIFPPNTVMTQSPTSMFISVGDRVTMNCKASQNVGSDVDWYQQKTGQSPKLLISGTSNRYTGVPDRFTGSGSGTDFTLTISNMQAEDLAVYYCLQYNYNPTFGAGTKLELKRTVAAPSVFIFPPSDEQLKSGTASVVCLLNNFYPREAKVQWKVDNALQSGNSQESVTEQDSKDSTYSLSSTLTLSKADYEKHKVYACEVTHQGLSSPVTKSFNRGEC | 0.117 µg/mL | 1600 | 35200 |
| DVD3759 (bispecific antibody, human IgG1, kappa, Four-chain DVD-Ig) heavy: not shown light: NTVMTQSPTSMFISVGDRVTMNCKASQNVGSDVDWYQQKTGQSPKLLISGTSNRYTGVPDRFTGSGSGTDFTLTISNMQAEDLAVYYCLQYNYNPTFGAGTKLELKRTVAAPSVFIFPPDVVMTQTPLSLPVSLGDQASISCRSSQSLVHSNGNTYLHWYLQKPGQSPKLLIYKVSNRFSGVPDRFSGSGSGTDFTLKISRVEAEDLGAYFCSQSTHVPYTFGGPTRLEIKRTVAAPSVFIFPPSDEQLKSGTASVVCLLNNFYPREAKVQWKVDNALQSGNSQESVTEQDSKDSTYSLSSTLTLSKADYEKHKVYACEVTHQGLSSPVTKSFNRGEC | 0.0412 µg/mL | 970 | 18600 |
